Assay [1] concerns the target T1, human TREM2 (triggering receptor expressed on myeloid cells 2) (human) (UniProt Q9NZC2).
T1 sequence (looked up): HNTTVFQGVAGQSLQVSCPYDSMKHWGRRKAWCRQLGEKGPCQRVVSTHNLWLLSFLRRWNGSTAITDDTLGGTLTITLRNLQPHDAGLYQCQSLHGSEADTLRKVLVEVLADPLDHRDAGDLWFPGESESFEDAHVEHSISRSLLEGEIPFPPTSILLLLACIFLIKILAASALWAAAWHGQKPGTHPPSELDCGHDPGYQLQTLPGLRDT
As to the kind of experiment: 2nd screen, 10 nM Ab.

Assay [2] concerns the target T1, human TREM2 (triggering receptor expressed on myeloid cells 2) (human). As to the kind of experiment: 1st screen, 10 nM Ab.
For assay [3] the target is unchanged. Put plainly: 2nd screen, 2 nM Ab.

B1: 6E7 antibody affinity modulation variant V88 (antibody, V domains shown)
VH: EVQLVQSGAEVKKPGESLKISCKGSGYSFGSYWIAWVRQMPGKGLEWMGIIYPGDSDTRYSPSFQGQVTISADKSISTAYLQWSSLKASDTAMYFCARQRTFYYDSSDYFDYWGQGTLVTVSS
VL: DIQMTQSPSSVSASVGDRVTITCRASQGISSWLAWYQQKPGKAPKLLIYAASRLQRGVPSRFSGSGSGTDFTLTISSLQPEDFATYFCQQADSSPRTFGQGTKLEIK
For the molecule B1, the values for the Binding Signal (fold over 6E7 parental antibody) in assay [1], in assay [2] and in assay [3] were 5.3 fold, 4.92 fold and 5.57 fold, respectively.

B2: 6E7 antibody affinity modulation variant V5 (antibody, V domains shown)
VH: EVQLVQSGAEVKKPGESLKISCKGSGYSFTSYWIAWVRQMPGKGLEWMGTIYPGDSDTRYSPSFQGQVTISADKSISTAYLQWSSLKASDTAMYFCARQRTFYYDSSDYFDYWGQGTLVTVSS
VL: DIQMTQSPSSVSASVGDRVTITCRASQGISSWLAWYQQKPGKAPKLLIYAASSLQNGVPSRFSGSGSGTDFTLTISSLQPEDFATYFCQQADSHPRTFGQGTKLEIK
On to B2, for which the Binding Signal (fold over 6E7 parental antibody) in assay [1] was 2.84 fold; in assay [2], 2.73 fold; in assay [3] it was 1.25 fold.

B3: 6E7 antibody affinity modulation variant V16 (antibody, V domains shown)
VH: EVQLVQSGAEVKKPGESLKISCKGSGYSMTSYWIAWVRQMPGKGLEWMGIIYPGDGDTRYSPSFQGQVTISADKSISTAYLQWSSLKASDTAMYFCARSRTFYYDSSDYFDYWGQGTLVTVSS
VL: DIQMTQSPSSVSASVGDRVTITCRASQGISSWLAWYQQKPGKAPKLLIYAASNLQNGVPSRFSGSGSGTDFTLTISSLQPEDFATYFCQQADSFPRTFGQGTKLEIK
As to B3, the Binding Signal (fold over 6E7 parental antibody) in assay [1] was found to be 4.04 fold; in assay [2] it was 4.01 fold; in assay [3], 3.57 fold.

B4: 6E7 antibody affinity modulation variant V27 (antibody, V domains shown)
VH: EVQLVQSGAEVKKPGESLKISCKGSGYSFTSYWIAWVRQMPGKGLEWMGIIYPGDSDTRYAPSFQGQVTISADKSISTAYLQWSSLKASDTAMYFCVRSRTFYYDSSDYFDYWGQGTLVTVSS
VL: DIQMTQSPSSVSASVGDRVTITCRASQGISSWLAWYQQKPGKAPKLLIYAASSLQRGVPSRFSGSGSGTDFTLTISSLQPEDFATYFCQQADSFPRTFGQGTKLEIK
For B4, the Binding Signal (fold over 6E7 parental antibody) is 5.69 fold in assay [1], 5.5 fold in assay [2] and 5.67 fold in assay [3].

B5: 6E7 antibody affinity modulation variant V15 (antibody, V domains shown)
VH: EVQLVQSGAEVKKPGESLKISCKGSGYSFASYWIAWVRQMPGKGLEWMGTIYPGDSDTRYSPSFQGQVTISADKSISTAYLQWSSLKASDTAMYFCARSRTFYYDSSDYFDYWGQGTLVTVSS
VL: DIQMTQSPSSVSASVGDRVTITCRASQGISSWLAWYQQKPGKAPKLLIYAASWLQNGVPSRFSGSGSGTDFTLTISSLQPEDFATYFCQQADSYPRTFGQGTKLEIK
With B5, the Binding Signal (fold over 6E7 parental antibody) was found to be 4.78 fold in assay [1], 5.23 fold in assay [2] and 4.72 fold in assay [3].

B6: 6E7 antibody affinity modulation variant V14 (antibody, V domains shown)
VH: EVQLVQSGAEVKKPGESLKISCKGSGYSFGSYWIAWVRQMPGKGLEWMGIIYPGDQDTRYSPSFQGQVTISADKSISTAYLQWSSLKASDTAMYFCARGRTFYYDSSDYFDYWGQGTLVTVSS
VL: DIQMTQSPSSVSASVGDRVTITCRASQGISSWLAWYQQKPGKAPKLLIYAASRLQNGVPSRFSGSGSGTDFTLTISSLQPEDFATYFCQQADSFPRTFGQGTKLEIK
Turning to B6, the Binding Signal (fold over 6E7 parental antibody) in assay [1] was determined as 4.64 fold; in assay [2], 4.71 fold; in assay [3] it was 2.57 fold.

B7: 6E7 antibody affinity modulation variant V24 (antibody, V domains shown)
VH: EVQLVQSGAEVKKPGESLKISCKGSGYSFTSYWIAWVRQMPGKGLEWMGIIYPGDSDVRYSPSFQGQVTISADKSISTAYLQWSSLKASDTAMYFCARSRTFYYDSSDYFDYWGQGTLVTVSS
VL: DIQMTQSPSSVSASVGDRVTITCRASQGISSWLAWYQQKPGKAPKLLIYAASSLQKGVPSRFSGSGSGTDFTLTISSLQPEDFATYFCQQADSFPHTFGQGTKLEIK
Consider B7, for which the Binding Signal (fold over 6E7 parental antibody) in assay [1] stood at 2.9 fold; in assay [2], 2.64 fold; in assay [3], 1.42 fold.

B8: 6E7 antibody affinity modulation variant V89 (antibody, V domains shown)
VH: EVQLVQSGAEVKKPGESLKISCKGSGYSFTSYWIAWVRQMPGKGLEWMGIIYPGDSDTRYSPSFQGQVTISADKSISTAYLQWSSLKASDTAMYFCARQRTFYYDSSDYFDYWGQGTLVTVSS
VL: DIQMTQSPSSVSASVGDRVTITCRASQGISSWLAWYQQKPGKAPKLLIYAASSLQNGVPSRFSGSGSGTDFTLTISSLQPEDFATYFCQQADSHPRTFGQGTKLEIK
With B8, the Binding Signal (fold over 6E7 parental antibody) in assay [1] stood at 1.46 fold; in assay [2] it was 1.33 fold; in assay [3], 0.94 fold.

B9: 6E7 antibody affinity modulation variant V17 (antibody, V domains shown)
VH: EVQLVQSGAEVKKPGESLKISCKGSGYSFGSYWIAWVRQMPGKGLEWMGIIYPGDSDTRYSPSFQGQVTISADKSISTAYLQWSSLKASDTAMYFCARSRTFYYDSSDYFDYWGQGTLVTVSS
VL: DIQMTQSPSSVSASVGDRVTITCRASQGISSWLAWYQQKPGKAPKLLIYAASSRQNGVPSRFSGSGSGTDFTLTISSLQPEDFATYFCQQADSSPRTFGQGTKLEIK
For B9, the values for the Binding Signal (fold over 6E7 parental antibody) in assay [1], in assay [2] and in assay [3] were 5.51 fold, 5.37 fold and 4.22 fold, respectively.

B10: 6E7 antibody affinity modulation variant V29 (antibody, V domains shown)
VH: EVQLVQSGAEVKKPGESLKISCKGSGYSFKSYWIAWVRQMPGKGLEWMGIIYPGDSDTRYSPSFQGQVTISADKSISTAYLQWSSLKASDTAMYFCARQRTFYYDSSDYFDYWGQGTLVTVSS
VL: DIQMTQSPSSVSASVGDRVTITCRASQGISSWLAWYQQKPGKAPKLLIYAASSLQNGVPSRFSGSGSGTDFTLTISSLQPEDFATYFCQQADSFPRTFGQGTKLEIK
For B10, the values for the Binding Signal (fold over 6E7 parental antibody) in assay [1], in assay [2] and in assay [3] were 1.67 fold, 1.53 fold and 0.84 fold, respectively.

B11: 6E7 antibody affinity modulation variant V26 (antibody, V domains shown)
VH: EVQLVQSGAEVKKPGESLKISCKGSGYSFTSYWIGWVRQMPGKGLEWMGTIYPGDSDTRYSPSFQGQVTISADKSISTAYLQWSSLKASDTAMYFCARQRTMYYDSSDYFDAWGQGTLVTVSS
VL: DIQMTQSPSSVSASVGDRVTITCRASQGISSWLAWYQQKPGKAPKLLIYAASSLQRGVPSRFSGSGSGTDFTLTISSLQPEDFATYFCQQADSYPRTFGQGTKLEIK
On to B11, for which the Binding Signal (fold over 6E7 parental antibody) stood at 3.47 fold in assay [1], 3.57 fold in assay [2] and 2.83 fold in assay [3].

B12: 6E7 antibody affinity modulation variant V13 (antibody, V domains shown)
VH: EVQLVQSGAEVKKPGESLKISCKGSGYSFGSYWIAWVRQMPGKGLEWMGIIYPGDSDTRYSASFQGQVTISADKSISTAYLQWSSLKASDTAMYFCARGRTFYYDSSDYFDYWGQGTLVTVSS
VL: DIQMTQSPSSVSASVGDRVTITCRASQGISSWLAWYQQKPGKAPKLLIYAASSLQGGVPSRFSGSGSGTDFTLTISSLQPEDFATYFCQQADSMPRTFGQGTKLEIK
B12: the Binding Signal (fold over 6E7 parental antibody) in assay [1] amounted to 1.35 fold; in assay [2] it was 1.31 fold; in assay [3], 1.15 fold.

B13: 6E7 antibody affinity modulation variant V28 (antibody, V domains shown)
VH: EVQLVQSGAEVKKPGESLKISCKGSGYSFQSYWIAWVRQMPGKGLEWMGTIYPGDSDTRYSPSFQGQVTISADKSISTAYLQWSSLKASDTAMYFCARQRTFFYDSSDYFDYWGQGTLVTVSS
VL: DIQMTQSPSSVSASVGDRVTITCRASQGISSWLAWYQQKPGKAPKLLIYAASSLQSGVPSRFSGSGSGTDFTLTISSLQPEDFATYFCQQADSLPRTFGQGTKLEIK
Turning to B13, the Binding Signal (fold over 6E7 parental antibody) was 3.61 fold in assay [1], 3.08 fold in assay [2] and 2.63 fold in assay [3].

B14: 6E7 antibody affinity modulation variant V4 (antibody, V domains shown)
VH: EVQLVQSGAEVKKPGESLKISCKGSGYSFGSYWIAWVRQMPGKGLEWMGIIYPGDSDTRVSPSFQGQVTISADKSISTAYLQWSSLKASDTAMYFCARSRTFYYDSSDYFDYWGQGTLVTVSS
VL: DIQMTQSPSSVSASVGDRVTITCRASQGISSWLAWYQQKPGKAPKLLIYAASRLQNGVPSRFSGSGSGTDFTLTISSLQPEDFATYFCQQADSYPRTFGQGTKLEIK
As to B14, the Binding Signal (fold over 6E7 parental antibody) in assay [1] amounted to 5.51 fold; in assay [2], 6 fold; in assay [3], 5.88 fold.

B15: 6E7 antibody affinity modulation variant V25 (antibody, V domains shown)
VH: EVQLVQSGAEVKKPGESLKISCKGSGYSFGSYWIAWVRQMPGKGLEWMGLIYPGDSDTRYSPSFQGQVTISADKSISTAYLQWSSLKASDTAMYFCARSRTFYYDSSDYFDYWGQGTLVTVSS
VL: DIQMTQSPSSVSASVGDRVTITCRASQGISSWLAWYQQKPGKAPKLLIYAASSLANGVPSRFSGSGSGTDFTLTISSLQPEDFATYFCQQADSMPRTFGQGTKLEIK
On to B15, for which the results for the Binding Signal (fold over 6E7 parental antibody) in assay [1], in assay [2] and in assay [3] were 4.7 fold, 4.23 fold and 3.15 fold, respectively.

Values taken from patent US20250019437A1.
